{
  "source": "the supplement of paper PMC11865577",
  "data": [
    {"test_system": "TO-3-N3 (biotin conjugate)", "assay": "pull-down binding Z-score (relative to library population); higher = stronger binding", "settings": "RNA library: Library-2", "procedure,_shortened": "(§1)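 Cy5- or Cy3-end-labelled RNA library (1 μg) was heat-folded in phosphate/NaCl/KCl buffer and incubated 60 min at 25 °C with streptavidin beads carrying 100 pmol biotin-conjugated small molecule. After three washes, bound RNA was eluted in hot SDS and hybridised 20 h at 55.5 °C to a DNA barcode microarray. Binding was scored by subtracting a beads-only control, averaging barcoded replicate probes after dropping highest and lowest, and converting to a Z-score against library mean and standard deviation.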", "values": [
      {"sequence": "CAGGGCGGUGCGGCAGCCGCCACC [hsa-mir-3621]", "pull-down binding Z-score": 0.771},
      {"sequence": "CAGGGGUUCUGAUAAACCCUUC [hsa-mir-6738]", "pull-down binding Z-score": 0.622},
      {"sequence": "CAGGUAGUUUUGGCAUGACUCUACUG [hsa-mir-20b]", "pull-down binding Z-score": 0.0561},
      {"sequence": "CAGGUGCCUCAAAGGGCAUCCCACCUG [hsa-mir-3151]", "pull-down binding Z-score": -0.578},
      {"sequence": "CAGGUGUUCUUAAAAUCACCUG [hsa-mir-875]", "pull-down binding Z-score": -0.63},
      {"sequence": "CAGUAAGCCUUGACUUAUGGCUAAAUGCUUC [hsa-mir-4273]", "pull-down binding Z-score": -0.111},
      {"sequence": "CAGUACUGGUCUUAGACUG [hsa-mir-554]", "pull-down binding Z-score": 0.477},
      {"sequence": "CAGUAUGAAUGAAUUCAUGAUACUG [hsa-mir-3607]", "pull-down binding Z-score": -0.768},
      {"sequence": "CAGUCAGUAAAUAUUUUUUUGUGAAUG [hsa-mir-511]", "pull-down binding Z-score": -0.305},
      {"sequence": "CAGUCCUGAGAUGCAGGGACUG [hsa-mir-4799]", "pull-down binding Z-score": -0.626},
      {"sequence": "CAGUGAACUAUCAUUGUGCCACUG [hsa-mir-1254-1]", "pull-down binding Z-score": 0.06},
      {"sequence": "CAGUGACAUGCGUUUAAC [hsa-mir-4485]", "pull-down binding Z-score": 0.345},
      {"sequence": "CAGUGAGCCAAGAUCGUGCCACUG [hsa-mir-1273d]", "pull-down binding Z-score": -0.172},
      {"sequence": "CAGUGAGCUAUGAUCAUGUCCCUG [hsa-mir-1254-2]", "pull-down binding Z-score": 0.0243},
      {"sequence": "CAGUGCACCUUCAUGAACCG [hsa-mir-938]", "pull-down binding Z-score": 0.249},
      {"sequence": "CAGUGCUUUUAGAAAAUUUGUGUG [hsa-mir-581]", "pull-down binding Z-score": -0.514},
      {"sequence": "CAGUGGCAGAUUUUCCCAUAG [hsa-mir-4727]", "pull-down binding Z-score": -0.543},
      {"sequence": "CAGUGGCAUCUGUCAUUG [hsa-mir-4663]", "pull-down binding Z-score": -0.159},
      {"sequence": "CAGUGGGGACAUG [hsa-mir-4531]", "pull-down binding Z-score": 2.18},
      {"sequence": "CAGUGGUGCCAUCUCCCCUG [hsa-mir-5008]", "pull-down binding Z-score": -0.377},
      {"sequence": "CAGUGUUAGCUCCAGAAGCAUUG [hsa-mir-3170]", "pull-down binding Z-score": 0.0378},
      {"sequence": "CAGUUGUACUGUGGCUG [hsa-mir-1291]", "pull-down binding Z-score": 0.0428},
      {"sequence": "CAUACAUAUGCCUACUACUACUUUCAUAUGUAGGCAUAUGUAUG [hsa-mir-7852]", "pull-down binding Z-score": -0.502},
      {"sequence": "CAUACAUUUUGAAUAUGUAUG [hsa-mir-299]", "pull-down binding Z-score": 0.734},
      {"sequence": "CAUAUGUAUGUAUGUAUGUCUGUUACACAUAUG [hsa-mir-3688-1]", "pull-down binding Z-score": -0.769},
      {"sequence": "CAUAUGUGUAACAGACAUACAUACAUACAUAUG [hsa-mir-3688-2]", "pull-down binding Z-score": -0.818},
      {"sequence": "CAUCACUGGAAUGUUCCAGCGACU [hsa-mir-3654]", "pull-down binding Z-score": -0.233},
      {"sequence": "CAUCAUUUGCACUACUGAUACUUGGGGUCAGAUAAUUGUUUGUGGUG [hsa-mir-4447]", "pull-down binding Z-score": -0.801},
      {"sequence": "CAUCCCGGACGGCCUGUGAGGGAUG [hsa-mir-4787]", "pull-down binding Z-score": 0.8},
      {"sequence": "CAUGAGCCCUUUGGAAAGGUCUCGUG [hsa-mir-4711]", "pull-down binding Z-score": 0.395},
      {"sequence": "CAUGAUUUGGAAAAAUUACUG [hsa-mir-6128]", "pull-down binding Z-score": -0.174},
      {"sequence": "CAUGCAGCAUGCUUGUCUG [hsa-mir-767]", "pull-down binding Z-score": -0.275},
      {"sequence": "CAUGCAGGCCACACUGACGGUAACGUUGCAGG [hsa-mir-431]", "pull-down binding Z-score": 0.647},
      {"sequence": "CAUGCAUGUGUCUAGAAAUAUGUUUU [hsa-mir-507]", "pull-down binding Z-score": -0.147},
      {"sequence": "CAUGCGCUAUCUCUGUGUCGUAUG [hsa-mir-380]", "pull-down binding Z-score": -0.0846},
      {"sequence": "CAUGUAUGUGUAUAUACAUAUAUAUG [hsa-mir-297]", "pull-down binding Z-score": 0.635},
      {"sequence": "CAUGUGCUGAGUUCGUGCCAUAUG [hsa-mir-654]", "pull-down binding Z-score": -0.615},
      {"sequence": "CAUGUGGUGGAACGAUGGAAACGGAACAUG [hsa-mir-218-2]", "pull-down binding Z-score": -0.477},
      {"sequence": "CAUGUUAAGUGUUGUCCUACAG [hsa-mir-5087]", "pull-down binding Z-score": -0.483},
      {"sequence": "CAUUAACGUGGACCAGACAAUAUUAAUG [hsa-mir-4491]", "pull-down binding Z-score": -0.339},
      {"sequence": "CAUUACUAAACUCAGUAAUG [hsa-mir-451b]", "pull-down binding Z-score": -0.822},
      {"sequence": "CAUUCACAUAGACUAUAAUUGAAUG [hsa-mir-652]", "pull-down binding Z-score": -0.751},
      {"sequence": "CAUUCUUUGCUA [hsa-mir-567]", "pull-down binding Z-score": 0.85},
      {"sequence": "CAUUGGUGUAAAGCUGGAGACCCACUG [hsa-mir-324]", "pull-down binding Z-score": 0.527},
      {"sequence": "CAUUGUAACAUGAUAGUG [hsa-mir-4264]", "pull-down binding Z-score": -0.752}
    ]},
    {"test_system": "TO-3-N3-2 (biotin conjugate)", "assay": "pull-down binding Z-score (relative to library population); higher = stronger binding", "settings": "RNA library: Library-2", "procedure,_shortened": "as §1", "values": [
      {"sequence": "CAGCCUGUUGUCAAGGCUG [hsa-mir-3130-1]", "pull-down binding Z-score": 0.129},
      {"sequence": "CAGCCUUGACAACAGGCUG [hsa-mir-3130-2]", "pull-down binding Z-score": -0.184},
      {"sequence": "CAGCUACACAAGCUG [hsa-mir-631]", "pull-down binding Z-score": -0.33},
      {"sequence": "CAGCUGUUGUCUCCAGAGCAUUCCAGCUG [hsa-mir-191]", "pull-down binding Z-score": -0.002},
      {"sequence": "CAGCUUGCUCUGCUUU [hsa-mir-4303]", "pull-down binding Z-score": 0.0132},
      {"sequence": "CAGGAGUGGACACCUG [hsa-mir-1246]", "pull-down binding Z-score": -0.238},
      {"sequence": "CAGGAUUAGUGCUUAUGCUAAGAUGUCUUCACUG [hsa-mir-6773]", "pull-down binding Z-score": -0.269},
      {"sequence": "CAGGCAGUGGAGUUACUU [hsa-mir-600]", "pull-down binding Z-score": 0.557},
      {"sequence": "CAGGCCAGGGGCAGACAGUGGACAGAGAACAGUGCCCAAGACCACUG [hsa-mir-378e]", "pull-down binding Z-score": 0.736},
      {"sequence": "CAGGCGGGGCAGCCCAAUGCCAUGGGCCUGAU [hsa-mir-4695]", "pull-down binding Z-score": 0.157},
      {"sequence": "CAGGCUGCUAAACAACAGAACGAGCACUG [hsa-mir-378f]", "pull-down binding Z-score": -0.122},
      {"sequence": "CAGGCUGGUCUCAAACUCCUGGUCUG [hsa-mir-1285-1]", "pull-down binding Z-score": -0.352},
      {"sequence": "CAGGCUGUGGCUCUCUGAAAGUC [hsa-mir-148b]", "pull-down binding Z-score": 0.496},
      {"sequence": "CAGGGAACUUUAAAACC [hsa-mir-4324]", "pull-down binding Z-score": 0.387},
      {"sequence": "CAGGGCGGUGCGGCAGCCGCCACC [hsa-mir-3621]", "pull-down binding Z-score": 0.241},
      {"sequence": "CAGGGGUUCUGAUAAACCCUUC [hsa-mir-6738]", "pull-down binding Z-score": -0.3},
      {"sequence": "CAGGUAGUUUUGGCAUGACUCUACUG [hsa-mir-20b]", "pull-down binding Z-score": -0.229},
      {"sequence": "CAGGUGCCUCAAAGGGCAUCCCACCUG [hsa-mir-3151]", "pull-down binding Z-score": -0.452},
      {"sequence": "CAGGUGUUCUUAAAAUCACCUG [hsa-mir-875]", "pull-down binding Z-score": -0.143},
      {"sequence": "CAGUAAGCCUUGACUUAUGGCUAAAUGCUUC [hsa-mir-4273]", "pull-down binding Z-score": 0.0166},
      {"sequence": "CAGUACUGGUCUUAGACUG [hsa-mir-554]", "pull-down binding Z-score": 0.172},
      {"sequence": "CAGUAUGAAUGAAUUCAUGAUACUG [hsa-mir-3607]", "pull-down binding Z-score": -0.718},
      {"sequence": "CAGUCAGUAAAUAUUUUUUUGUGAAUG [hsa-mir-511]", "pull-down binding Z-score": 0.0526},
      {"sequence": "CAGUCCUGAGAUGCAGGGACUG [hsa-mir-4799]", "pull-down binding Z-score": -0.531},
      {"sequence": "CAGUGAACUAUCAUUGUGCCACUG [hsa-mir-1254-1]", "pull-down binding Z-score": -0.125},
      {"sequence": "CAGUGACAUGCGUUUAAC [hsa-mir-4485]", "pull-down binding Z-score": 0.112},
      {"sequence": "CAGUGAGCCAAGAUCGUGCCACUG [hsa-mir-1273d]", "pull-down binding Z-score": -0.179},
      {"sequence": "CAGUGAGCUAUGAUCAUGUCCCUG [hsa-mir-1254-2]", "pull-down binding Z-score": -0.1},
      {"sequence": "CAGUGCACCUUCAUGAACCG [hsa-mir-938]", "pull-down binding Z-score": 0.209}
    ]}
  ]
}
